The series can be described thus: yeast display, Sf9 membrane polyspecificity reagent, FACS + sequencing; frameworks hold sequencing errors. In short, it runs like this:
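Nanobodies from a synthetic yeast display library (Saccharomyces cerevisiae BJ5465), induced 36–48 hours with galactose, were stained 1 hour at 4 °C with 10% biotinylated, detergent-solubilized Sf9 membrane reagent, enriched on streptavidin microbeads, then FACS-sorted. Anti-HA (expression) and streptavidin (reagent binding) fluorescence set low and high (top ~1%) gates. Polyreactivity labels come from the gate of origin. Genes were colony-PCR amplified, MiSeq 2 × 250 sequenced and filtered by CDR length.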
As to “QVQHVESGGGLVQAGGSLRLSCAASGRILIRNAMGWYRQAPGKERELVAAINRGGGSTYYADSVKGRFTISRDNAKNTVYLQMNSLKPEDTAVYYCAADRKAGYSRVDGDYWGQGTQVTVSS”, the “polyreactivity (PSR sort gate)” value was “low polyreactivity”.

As to “QVQHVESGGGLVQAGGSLRLSCAASGRILVSYAMGWYRQAPGKERELVAAISRSGGSTYYADSVKGRFTISRDNAKNTVYLQMNCLKPEDTAVYYCATGLYIQSTYHRYERYNYWGQGTQVTVSS”, the “polyreactivity (PSR sort gate)” value is “high polyreactivity”.

For the sequence “QVQHVESGGGLVQAGGSLRLSCAASGRIYAMGWYRQAPGKERELVARITKSGTSTYYADSVKGRFTISRDNAKNTVYLQMNSLKPEDTAVYYCNARYWGYWGDHYDYWGQGTQLTVSS”, the “polyreactivity (PSR sort gate)” value is given as “high polyreactivity”.

Consider “QVQHVESGGGLVQAGGSLRLSCAASGRTFGRNAMGWYRQAPGKESEFVASINQRGGCTYYADSVKGRFTISRDIAKNTVYLQMNSLKPEDTAVYYCAKYVYVGYVRQVPYFRYDYWGQGTQVTVSS”, for which the “polyreactivity (PSR sort gate)” value is on record as “high polyreactivity”.

For the sequence “QVQHVESGGGLVQAGGSLRLSCAASGRTFIINTMGWYRQAPGKERELVAAISKFGATTNYADSVKGRFTISRDNAKNTVYLQMNSLKPEDTAVYYCNARYSGYLRLDYWGQGTQVTVSS”, the “polyreactivity (PSR sort gate)” value is “low polyreactivity”.

On to “QVQHVESGGGLVQAGGSLRLSCAASGRTFNAYTMGWYRQAPGKERELVAAITSSGGNTYYADSVKGRFTISRDNAKNSVYLQMNSLKPEDTAVYYCNTVYLYGTHDYWGQGTQVTGSS”, for which the “polyreactivity (PSR sort gate)” value is listed as “low polyreactivity”.

Regarding “QVQHVESGGGLVQAGGSLRLSCAASGRTFNFNTMGWYRQAPGKERELVASITSGGSTNYADSVKGRFTISRDKAKNTVYLQMNSLKPVDTAVYYCATRTTTFWFDYWVQGTQVTVSS”, the “polyreactivity (PSR sort gate)” value was “low polyreactivity”.

As to “QVQHVESGGGLVQAGGSLRLSCAASGRTFPINAMGWYRPAPGKERELVARISRTSGSTYYADSVKGRFTISRDNAKNTVYLQMNSLKPEDTAVYYCAAVRDKYFRASYGYWGQGTQVTVSS”, the “polyreactivity (PSR sort gate)” value is listed as “high polyreactivity”.

“QVQHVESGGGLVQAGGSLRLSCAASGRTFSWYVMGWYRQSPGKERELVAAISWNGGRTYYADSVKGRFTISRDNAKNTVYLQMNSLKPEDTAVYYCAAKSYHGYPFDYWGQGTQVTVSS”: the “polyreactivity (PSR sort gate)” value is given as “high polyreactivity”.

For the sequence “QVQHVESGGGLVQAGGSLRLSCAASGRTFVLYTMGWYRQAPGKERELVAAISGSGGRTYYADSVKGRFTISRDNAKNTVYLQMNSLKPEDTAVYYCAAYGQGLPLYGYWGQGTQVTVSS”, the “polyreactivity (PSR sort gate)” value is listed as “high polyreactivity”.

As to “QVQHVESGGGLVQAGGSLRLSCAASGRTFVYYVMGWYRQAPGKESELVAAITGSGDSTYYADSVKGRFTISRDNAKNNVYLQMNSLKPEDTAVYYCAARRGTRYYDFGYYYWGQGTKVTVSS”, the “polyreactivity (PSR sort gate)” value is reported as “high polyreactivity”.

Take “QVQHVESGGGLVQAGGSLRLSCAASGRTFYKNTMGWYRQAPGKERELVAGISQRGGRTYYADSVKGRFTISRDNAKNTVYLQMNSLEPEDTAVYYCNKRRAAGGFPFDYWGQGTQVTVSS”: the “polyreactivity (PSR sort gate)” value was “high polyreactivity”.

As for “QVQHVESGGGLVQAGGSLRLSCAASGRTFYRNAMGWSRQAPGKELELVAAITRSGGSTYYADSVKGRFTTSRDNAKNTVYLQMNSLQPEDTAVYYCARRLYPYRPTPYDYWGQGTQVTVSS”, the “polyreactivity (PSR sort gate)” value is recorded as “low polyreactivity”.

On to “QVQHVESGGGLVQAGGSLRLSCAASGRTFYYNDMGWSRQAPGKERELVAAISWSGVSTSYADSVKGRFTISRDNAKNTVYLQMNSLKPEDTAVYYCAADNDGWYFHITEYDYWGQGTQVTVSS”, for which the “polyreactivity (PSR sort gate)” value was “low polyreactivity”.

On to “QVQHVESGGGLVQAGGSLRLSCAASGRTSYTNAMGWSRPAPGKERELVAAINYSGGSTYYADSVKGRYTISRDNAKNTVYLQMNSLKPEDTAVYYCAAERYYWYTEMGYWGQGTQVTVSS”, for which the “polyreactivity (PSR sort gate)” value was “high polyreactivity”.

Take “QVQHVESGGGLVQAGGSLRLSCAASGRTVASYAMGWYRPAPGKERELVAVITRGGRTYYADSVKGRFTISRDNAKNTVYLQLNSLKPEDTAVYYCKAAYYSSSYLEDSWGHGTQVTVSS”: the “polyreactivity (PSR sort gate)” value is “high polyreactivity”.

In the case of “QVQHVESGGGLVQAGGSLRLSCAASGSIFAHYTMGWYRQAPGKERELVAVISRSGARTYYADSVKGRFTISRDNAKNTVYLQMNSLKPEDTAVYYCAADRNLEEDYWGLGTQVTVSS”, the “polyreactivity (PSR sort gate)” value is reported as “low polyreactivity”.

For the sequence “QVQHVESGGGLVQAGGSLRLSCAASGSIFASYAMGWYRLAAGKERELVAAISRRAVLTYYADSVKGRFTISRDNPKNTVYLQMNSLKPEDTAVYFCNARGYSGYQRYGYNYWGQGTQVTVSS”, the “polyreactivity (PSR sort gate)” value was “high polyreactivity”.

Take “QVQHVESGGGLVQAGGSLRLSCAASGSIFIPNAMGWYRQAPGKERELVAAITSGGRTYYADSVKGRFTISRDNAKNTVYLQMNSLKPEDTAVYYCAARSGYRYVESEYWGQGTQVTVSS”: the “polyreactivity (PSR sort gate)” value is given as “high polyreactivity”.

For the sequence “QVQHVESGGGLVQAGGSLRLSCAASGSIFLPYAMGWYRQAPGKQRELVAAISDRGSTYYADSVKGRFTISRDNAQNTVYLHMNSVKAEDTAVYYCAKVYLLFVGALQFDYWGQGTQVTVSS”, the “polyreactivity (PSR sort gate)” value is listed as “low polyreactivity”.

Take “QVQHVESGGGLVQAGGSLRLSCAASGSIFNRYAMGWYRQAPGKERELVAAITYNGGSTYYADSVKGRFTISRDNAKNTVYLQMNSLKPEDTAVYYCAAERYNGYDYWGQGTQVTVSS”: the “polyreactivity (PSR sort gate)” value is recorded as “high polyreactivity”.

Regarding “QVQHVESGGGLVQAGGSLRLSCAASGSIFVNNAMGWYRQAPGKERELVAAIRRSGGNTYYADSVKGRFTISRDNAKNTVYLQMNSLKPEDTAVYYCNVVRRADSIRAKSRDYWGQGTQVTVSS”, the “polyreactivity (PSR sort gate)” value was “high polyreactivity”.

As to “QVQHVESGGGLVQAGGSLRLSCAASGSIFYVNAMGWYRQAPGKERELVAAITRDGSTNYADSVKGRFTISRDNAKNTVYLQMNSLKPEDTAVYYCAADFVRYIDREDYWGQGTQVTVSS”, the “polyreactivity (PSR sort gate)” value was “low polyreactivity”.

As to “QVQHVESGGGLVQAGGSLRLSCAASGSIFYVYAMGWYRQAPGKERELVASINKSGGSTYYADSVKGRFTISRDNAKNTVYLQMNSLKPEDTAVYYCAARTGWPRVGFQYPAHVGFDYWGQGTQVTVSS”, the “polyreactivity (PSR sort gate)” value is “low polyreactivity”.

With “QVQHVESGGGLVQAGGSLRLSCAASGSIFYYYTMGWYRQAPGKERELVAAITSGGSTYYADSVKGRFTISRDNAKNTVYIQMNSLKPDDTAVYYCAAEYHSFLWDMDYWGQGTQVTVST”, the “polyreactivity (PSR sort gate)” value is “high polyreactivity”.

For the sequence “QVQHVESGGGLVQAGGSLRLSCAASGSIISYYAMGWSRQQPGKERELVAAITANGGSTSYADSVKGRFTISRDNAKNTVYLQMNSLKPEVTAVYYCAKESDYPYYVSTKGDYDYWGQGTQVTVSS”, the “polyreactivity (PSR sort gate)” value is “low polyreactivity”.

On to “QVQHVESGGGLVQAGGSLRLSCAASGSTFAFNTMGWYRQSPGKEWELVAGISSNGGRTYYADSVNGRFTISRDNAKNTVYLQMNSLKPEDTAVYYCNRASVFHYRWYYYWGQGTQVTVSS”, for which the “polyreactivity (PSR sort gate)” value was “high polyreactivity”.

Take “QVQHVESGGGLVQAGGSLRLSCAASGSTFAVYTMGWYRQAPGKERELSTSYADSVKGRFTISRDNAKNTVYLQMNSLKPEDTAVYYCNRDFYEFDSNSYRFDYWGQGTQVTVSS”: the “polyreactivity (PSR sort gate)” value was “low polyreactivity”.

On to “QVQHVESGGGLVQAGGSLRLSCAASGSTFDDNTMGWYRQATGKERELVAAITRSGGSTYYADSVKGRFTISRDNAKNTVYLQMNSLKPEDTAVYYCATYPYSPYYYVYVEPYDYWGQGTQVTVSS”, for which the “polyreactivity (PSR sort gate)” value was “low polyreactivity”.

Consider “QVQHVESGGGLVQAGGSLRLSCAASGSTFDSNDMGWYRQAPGKEWELVPGITWSGASTYYADSVKGRFTISRDNAKNTVYLQMNSLKPEDTAVYYCAAGPWGTGHYVQGPVYYYRYDYWGQGTQVTVSS”, for which the “polyreactivity (PSR sort gate)” value is given as “low polyreactivity”.

“QVQHVESGGGLVQAGGSLRLSCAASGSTFDVYALGWDRQAPGKERELVAAISESGSSTYYADSVKGRFTISRDNAKHTVYLQMNSLKPEDTAVYSCNALYYDWHPEYQVIFSYFYYWGQGTQVTVSS”: the “polyreactivity (PSR sort gate)” value is “low polyreactivity”.

For the sequence “QVQHVESGGGLVQAGGSLRLSCAASGSTFNSYDKGSYRQAPGKERELVAAISSSAASTYYADSVKGRFTISRDNAKKTGYLQMNSLKPEDTAVYYCAAYVYYTYPSCTVYSVSYIYDYWAQGTQVTVSS”, the “polyreactivity (PSR sort gate)” value is listed as “low polyreactivity”.

For the sequence “QVQHVESGGGLVQAGGSLRLSCAASGSTFSANAMGWYRQAPGKERELVAVIRRGGSTTYADSVKGRFTISRDNAKNTVYLQMNSLKPEDTAVYYCNARVTLGRPLFTYLVRYEYWGQGTQVTVSS”, the “polyreactivity (PSR sort gate)” value is “high polyreactivity”.

For “QVQHVESGGGLVQAGGSLRLSCAASGSTFSKYAMGWYRLAPGKERELVAAINYGGTSTYYADSVKGRFTISRDNAKNTVYLQMNSLKPEDTAVYYCAVIYRRLYTGGQNPYDYWGQGTQVTVSS”, the “polyreactivity (PSR sort gate)” value was “high polyreactivity”.

As for “QVQHVESGGGLVQAGGSLRLSCAASGSTFWRYAMGWYRQAPGKERELVAAISTSGGSTRYADSVKGRFTISRDNAKNTVYFQMKSLKPEDTEVYYCADRSVSSTSYGYWGQGTQVTVSS”, the “polyreactivity (PSR sort gate)” value was “high polyreactivity”.

As to “QVQHVESGGGLVQAGGSLRLSCAASGSTFYIYAMGWYRQAPGKERELVATITDGGSTNFADSVKGRFTISRDNAKNTVYLQMNSLKPEDTAVYYCNANVWTGYDYWGLGTQVTVSS”, the “polyreactivity (PSR sort gate)” value is recorded as “low polyreactivity”.

Regarding “QVQHVESGGGLVQAGGSLRLSCAASGSTFYLYAMGWYRQAPGTERELLAAITYSGDRTRYADSVKGRFTISRDNAKNTVYLQMNSLKPEDTAVYYCAAPYVGARNAYRMCYWGQGTQVTVSS”, the “polyreactivity (PSR sort gate)” value was “high polyreactivity”.

For “QVQHVESGGGLVQAGGSLRLSCAASGSTISNNAMGWYRQAPGKERELVAGINSSGGRTYYADSVKGRFTISRDNAKNTVYLQMNSLKPEDTAVYYCNADNFRRYGYWGQGTQVTVSS”, the “polyreactivity (PSR sort gate)” value is given as “high polyreactivity”.

Consider “QVQHVESGGGLVQAGGSLRLSCAASGSTSDTNVMGWYRQDPGKERELVAAISYDDDRTYYADSVKGRFTISSDNAKNTVYLQMNSLKPEDTAVYYCATADDYPGDDYLEGGYWGQGTQVTVSS”, for which the “polyreactivity (PSR sort gate)” value is “low polyreactivity”.

Regarding “QVQHVESGGGLVQAGGSLRLSCAASGSTYGYYAMGWYRQAPGKERELVAAITSGGTTNYADSVKGRFTISRDNAKNTVYLQMNSLKPEDTAVYYCNAVGTFVRFWTDGRDGVTYDYWGQGTKVTVSS”, the “polyreactivity (PSR sort gate)” value is listed as “low polyreactivity”.

The record behind these values is the nanobody polyreactivity screen of Harvey et al. (2022).
